Reference: PMC10865538 (BMC Infectious Diseases, 2024)

Biological target: T1, recombinant wild-type RBD-Fc (Sino Biological, 40,592-V02H) (SARS-CoV-2, UniProt P0DTC2)
T1 construct: also called Fc-tagged SARS-CoV-2 RBD; source: bought: Sino Biological
Assay: BLI
Conditions: both partners purified

B1: sdAb39 (VHH)
VHH: EVQLVESGGGLVQPGGSLRLSCAASGNTSTRHPMSWVRQAPGKGLELVASIGRGEITYYADSVKGRFTISRDNSKNTLYLQMNSLRAEDTAVYYCAAFVDFLSRHNSRRPYPHGYWGQGTLVTVSS
  Kd: 56 nM
